Experimental data reported in a protein production outcome set (Wang et al. 2014).

Test: label from the status in PepcDB records
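Note: failed if final PepcDB status was selected cloned or expressed and not failed if soluble or beyond.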

| Sequence | protein production |
| --- | --- |
| MLDQKPKVSVIIPTYNRAHLIPRAIKSVLNQTYLDIEIIIVDDSSTDNTEEIVKDFKDRRLKYIRHNINKGASAARNTGIRESRGKYIAFQDSDDEWFSNKLEKQIEAFADAPPEVGIVYSGFYRIEANRKLYLPSDQLSLKEGNIHNELLKGNFVGTPTVLMKKECFRNQRYFNESLPALEDWELWIELSKYYTFRYIKKPLLCSYSTPNSINLNENNMLKAHEIILLTHLDDFSKNKKNLSEHYYDIGTGLCSIGNFNNGKNYLIKSLKAYCLNFKTISVLFILLFGHNIYYKFRDLHRKIGHRT | failed |
| MIPGMNAKQMKKMERQMKKMGMDMKDLKGVKEVIIRLEDKELVIPNAEVSLMNVMGQETYQVTGKAHEVAIDEELVIPDEDIEMVANQANVSEDEAKAALEDTNGDLAEAILKLNQ | failed |
| MPSSAFPDTRMTLACRRMAGGASALPSFRMGAGLAFQPGLENAMSTVQDYIVADIGLADYGRKELDIAETEMPGLMSCRSELGETKPLKGARISGSLHMTIQTAVLIETLTALGAEVRWASCNIFSTQDHAAAAIAASGVPVFAVKGESLTEYWDYTDRIFQWTDGGQSNMILDDGGDATMYILLGARAEAGENVLVNPSSEEEEILFAQIKKRMAATPGFFTKQRDAIKGVTEETTTGVNRLYQLSQKGLLPFPAINVNDSVTKSKFDNKYGCKESLVDGIRRATDVMMAGKVAVVCGYGDVGKGCAASLIGAGARVKVTEVDPICALQAAMDGFEVVRLEDVVKTADIFITTTGNKDVIRIEHMREMKDMAIVGNIGHFDNEIQVVALKNLKWVNIKPQVDMIEFPAGNRMILLSEGRLLNLGNATGHPSFVMSASFTNQVLAQIELFTKPDAYKNQVYVLPKHLDEKVARLHLEKLGVRLTELSDEQASYIGVTPSGPFKADHYRY | failed |
| MSEFLALFSAMWKESWRDKISTFFSIAFPVMFLLIFGFLFGGSGNSVKTAVVTVDYDLSDFGDVYTSLEELKGYYHEVAVVEKERIIFIRNTTDEYYQSLLDSWEISLKNKVTRLLNGLNPVIMVKKEVLKTARELTSFDYTLTGVIAVSLLSIGLFGTVDVFSRYRERGFLKRLKATPVGNFSFVFGLISARMFYGILSTALIMLLGTLIFKASYELNVFLFLISVVSSVLSFIALGALISILFKKSDVATDAAVILFTIMMFLTGVYFPVSFLPDYLRVVSYFLPVKYGVELIRYSLGFEIFPFSRYLITAVIMFLAGLMFVFYTASLVLRKED | failed |
| MERLTRWLLVMMAMLLAASGLVWFYNSNHLPVKQVSLKGNLVYSDKKTLGSLAKEYIHGNILRTDINGAQEAYRRYPWIASVMVRRRFPDTVEVVLTERKPVARWGDHALVDGEGNVFEARLDRPGMPVFRGAEGTSAEMLRRYDEFSTVLAKQGLGIKEMTYTARSAWIVVLDNGITVRLGRENEMKRLRLFTEAWQHLLRKNKNRLSYVDMRYKDGFSVRYASDGLPEKESEE | failed |
| MGRRKKILFTDYFINLVDTYKLNQVGERTYNKYCLTHRHLKKICPDLYLQDMNANDYQQILNEFGKTHEKATTVDFHHQLAWALKRAYNVDGLTDRDVTYDAQIPKGVVTNKKKPKFMELDDMKKLVVTLKYLNSSYANFFLILLKTGLRFAELLGITLEDIDFEKKTISINKTLDYKKGAYDENFSRRFKSTKNKYSIRTIPVDDAVIYMFWRNAKGADKDESIFGSIKGFQYNSSLNNKLEQTCKYAGVPVITLHGLRHEHATYLVSQGIDSRAVAERLGHVDDSVTREVYIHRLETERVRDNQQIMRSVSKI | failed |
| MERRTILVTGASGFVGGALCRQLATLGSFAIRAASRDLGGASVAGIQAVTVADLSATTDWARALSGVDLVVHAAARVHVMKETASDSLAEFRRVNVDGTLNLARQAAAAGVRRFIFISSIKVNGESSQPGQPLRADDSPAPQDAYGVSKHEAEQGLRQLAAATGMEVVVIRPVLVYGPGVKANFHSMMRWLQRGVPLPFGAVCNRRSLVSLANLVDLVVTCIDHPRAANQTFLASDGDDVSLTQLLRALGLALGRPARLLPVPAGLLRGAVLLIGRRDLAQRLFGTLQVDIEKNRQLLGWYPPCTLEQGLNMTARSFLGARRP | failed |
| MNDTLLTTYTLAEGLHWLDLIGVLAFAMSGALLGVRKRFDLFGVLVLGAVTAVGGGAIRDSLTGQTPPLFLRDETYLWTALLGALLAFAFGERLARFERTLSLFDSAGLALFATSGALGAIKIGLGPLGVVFAGMLSGVGGGIIRDLIANEVPEVMYRRDQLYATAAAAGAGAVWLLAPHFTPFQAQAGGALLVLFLRWVSRRQWVRLPVRRLPE | failed |
| MPTDRSTPATRHRLGGWMASEEAHMAAYREKIAGEARAHAGERLRTPAVQELARLFDDNAVLRMSLTRAIDEALESGRKLGYASIGELMTVIDHLMTYTPPFSESSLIVCPLNAFLDWPMCMPSGHAVFRDAAVNAHLKQVLNVWCDFLGGPHSCTHLDTSAPDGWFCDEARERLGLSQFQYQEDQPHWGFASWNDFFTRRFRADARPVTAPGDPHVIVSACEAQPYHAESNLKIRDKFWIKGQPYSLRDIFTPARLPLAERFVGGDLYQAYLSAYNYHRWHAPVRGTVTHAYRVDGTYYSVAEAEGPDPAGLNDSQGYMTAVAARAVIAIDCDDPGIGTVVGVFVGMGDVSSCVIEVMPGQRIDKGEEIGYFQYGGSTYCLLFEPGVIDHFVHAPPFDDDTPVVQVNAPVAIAR | failed |
| MKLKEVTEGKVRIFVPDPTGYMVEGKFDPSWAPVFYNPKMTFNRDLSVIVVSILKPKIIVDALSATGIRGIRYYVESWKSEQLILNDKNPNATSLIQINAKNNGIENAKIYNKDANALLYEVKSDYIDIDPFGSPAPFILSSLNAATRNGIVAFTATDLSPLEGSSPTSCRRKYDAINHKLSSSKELGLRVLIGKIIREAAILEKTVYPLFSFYADYYYRLFVRVENGARKADDNINKHLKYFGECPRCGFQTFVEENCKTKCPVCGEIFSIIGPLYIGPLYSMEFLKRIMDLYSNFNYLTSFNRIQKLLNVIEKEARFKNVFYNISKLASKLKISAIPPIESILECLGDASRTHFAPTGIRTDKEYEEITKCIKSLR | failed |
| MPANPRQDLDRYRAKRDFARTPEPQGRSEAPRPEAESLSFVVQKHAASRLHWDFRLEWNGVLLSWAVTRGPSPDPSARRLAVRTEDHPLDYAEFEGTIPKGEYGGGTVMLWDRGTWEPQGDFAEGLRTGQLKIRLAGERMRGRWTLVRMKPRPREKAENWLLIKEHDTHESEQTEELVERHMTSVATGRTMEQIAAGKAPPRRTRQAALPAFRPLQLARLVSAAPEGEDWIHETKFDGYRCLAALAGGRARLYTRSGLDWTAKFGALVEDVEALEAQEALIDGEVIAPGREGGSFSELQARLKSGGQLLFMTFDLLLLDGEDLTGQPLLARKERLKTLIGKGRGAVRFSGHIRGHGPEVHERICAAGLEGIVSKRASAPYAGSRNGDWLKVKCAHRQEFVICGWNASDKPGRPFASLVMGSYEKSRLVYRGSVGSGFGAPLFRELKPLLAERAQSACPFDRTPAEAKGAHWLKPELVAEVSFTELTAEGHIRHGVFAGLRSDKDAREVRLEEPAPETPAPRKSGVRKKGTKTARPDAPSPDEPAPEPARKPRTARGEKKETTMARPDDLRVAGIRISHPDRRIYDRPAVTKREVAEHAEALAPRMLRFLKDRPVSLLRCPEGAAAECFFQKHRTRGMPVAMKTVPVETKSGPEDFITLPDVAALVGATQMGTLEFHIWGSRNRSLQRPDRLVFDLDPDEGLDFAHVRTAAAELRGLLTDLGLPSVPMLSGGKGVHVIVPLKPKAEWESVKLFSRALATHLAQEAPDRYTATMAKAGRKGRIFIDWLRNDRGSTAIAPYSLRARPGAPVATPVDWDELASARSGGDWTIRSIRDRLDRPCPLAEASARPATLGRTVIGRLERLVAGGKP | failed |
| MVERVASSEVANRLNEWYDTIKRQDIKKAAILKHDLQKAMDDMEEDQNVLLYYNLIDSRYKLLLEQYDESGTILESLKDQTERADTDNLLQYYYYFFSGLYEFNMNNFTHAIRLYHKAENHLTTIPDEIEHAEFHFQLAVAYQSIDQSFFSINHAEKALDIYLKQENYVSRIALTQMIIAANKLDLNQYLAAEKLYKKAILIAVDSNQTFIELLGYYNLGLCYEVQEKLEQARDCFEKALDFNFPQENKKETYLRIKYMLARVLFKMGFLQEGVKWFEDAVQLANETNDKIYQVKLQIIHAVYFDQKELSIDEGLKVLKEQSLWHDVEDLSFIAARFYKKEGFYQLASKYYEEGLNAQQKIPSLYEEVGSA | failed |
| MLLAYSMKVVYHLFSGGKDSSLAAWILKKLGYEVKLITITFGVLDNWKFARETAEILGFDHEVIEMPIGILEKATEMCIKEGRAGNAIQYIHERALEYIASREEVKRISDGTRRDDRVPFLDLSKARSLEDRYNVAYIRPLLGLGYKTIRELVNEIFVVVEDESEKVQKGDYETELRELIRRKGHDPSQIFPKRHVQSRVVGLR | not failed |
| INDKLLVQTIKKALFGLRYQRAKKDIQEKDTMISVVADNSPAGICLFGDNGIIYANKALETITGYSKSELIGGSLLDIIQSDSKRLSERINLSLDSACNLEKYSEIRIKTKTGKIRYIDLIANSVEFKEGYVCIANMIDV | failed |
| MKGDRHCIVIIDMLNDFIGPNAPLRCPDGEKIVPNLQKLVEFAHENGINVVFVQEAHRKNDADFRVRPVHAVKGTWGSDFIPELRPDEEKGDYIVQKRRHSAFAYTDLDLYLREEKIDTVVVTGVWTNVCVRSTASDALYHAYNVIAISDCCASANEEMHQAGLRDMALFAEVMTLEEYMKEWPNREGAKK | not failed |
| MDELRFAAVGLNHNHIYGQVNCLLRAGARLAGFHEKDDALAAEFSAVYADARRIATAEEILEDENIGLIVSAAVSSERAELAIRAMQHGKDVLVDKPGMTSFDQLAKLRRVQAETGRIFSILYSEHFESPATVKAGELVAAGAIGEVVHIVGLGPHRLRRETRPDWFFRRADYGGILTDIASHQCEQFLFFTGVNDATVLSASVGNQSVPDAPELQDTGSIHLSTGRTTGMIHVNWLTPEGMPTWGDGRLFIVGTSGTIEVRKTVDLAGREGGNHLFLADRNGVEHIDCSRVDLPFGRQFLADIRDRTETAMPQERCFKAMELALQAQAIAEQNGDRN | not failed |
| MMKTQAEINKRLDAYRKGTVDSPYRVKVWTSYDNRFYPMEPGCIDVDKSFHAQCADLTIDYILWLTDNEFRIRGNAKDAINPKKNKLPEGWKIVLNRPSTVPRKGWIAVFTDGTYWEYGHIGMVYDGGNTSRFQILEQNWNGWANKKPSLRWDNYYGLTHFIVPPVAKENKAVSSSKQQAPKQKVKKASTKKALPKITKHITGYNMDKRGYNPKGVVLHNDAGGMNYKQYYNNLVNANYDRLARGIAHAYVDRTGIWEAIDESRIAWHVADGTRPGSGNHDFYGIEVNQSLRASDKEFLENEQAVFQFAAEKLKKWGLPANRNTVRLHNEFSQTSCPHRSMVLHTGLDPLYHSITEHARLKLKDYFIKQIRAYMDGKKPTSKVVVSKPGSASTPATRKDANGYRENPHGTLYKEEHATFTANANIITRYVGPFTNMPQAGILKAGQTIIYDEVMKQDGYIWVGYTAYNGKRVYLPVRKWNRETDSVGKLWGVIS | failed |
| TSSTIFSGVAIYVNGYTDPSAEELRKLMMLHGGQYHVYYSRSKTTHIIATNLPNAKIKELKGEKVIRPEWIVESIKAGRLLSYIPYQLYT | not failed |
| MQIVTDKNKVALYYKDIAVTYKEFILNTKKIKQFTKIKEFTNNMIYMENRPELLYSFFAIWDSRATCVCIDASSTAVELTYYIDNSDVVKIFTTKMQVEKVKGALSILSKQIEIIVVDEINLSEIKIDENSSENLVINSPEKEDTALILYTSGTTGKPKGVMLTFDLEHHHHHH | failed |
| MASGKSIMGGLPPLKPGEKLPRLQTVIATSPENPAGDPNIRPQQAGEAAGKVIGGGLGVLLVTVCVLLLLGPVLWAPGWAGLRVARFLSGPWQPWLAGFAAFVAVAVLQTFLLIQRHPALRYPIVTLFSVLWVGGLWLEFNSPRHDWVTTAPTLQMPGPWSWALIISGSVVYAGIYLLALAPVGKSRWARRWQLLK | failed |
| RQVQKELGDVLVRLHNPVVLTPTTVQVTWTVDRQPQFIQGYRVMYRQTSGLQATSSWQNLDAKVPTERSAVLVNLKKGVTYEIKVRPYFNEFQGMDSESKTVRTTEE | not failed |
